We go through 22 sequences from the DeepSol protein solubility set.

The nature of the data set: soluble on expression in E. coli; label from the status in PepcDB or PDB records.
For “MVNLELIEVQEGKAKILIPKAESIYDSPVFYNPRMALNRDIVVVLLNILNPKIVLDALSATGIRGIRFALETPAEEVWLNDISEDAYELMKRNVMLNFDGELRESKGRAILKGEKTIVINHDDANRLMAERHRYFHFIDLDPFGSPMEFLDTALRSAKRRGILGVTATDGAPLCGAHPRACLRKYLAVPLRGELCHEVGTRILVGVIARYAAKYDLGIDVILAYYKDHYFRAFVKLKDGARKGDETLEKLGYIYFDDKTGKFELEQGFLPTRPNAYGPVWLGPLKDEKIVSKMVKEAESLSLARKKQALKLLKMIDQELDIPLFYDTHAIGRRLKIETKKVEEIISALREQGYEATRTHFSPTGIKTSAPYEVFIETIKRI”, the “soluble on expression in E. coli” value is “soluble”. To “MEDERIKLLFKEKALEILMTIYYESLGGNDVYIQYIASKVNSPHSYVWLIIKKFEEAKMVECELEGRTKIIRLTDKGQKIAQQIKSIIDIMENDT” belongs “soluble”; to “MGHHHHHHSHMSIFTPTNQIRLTNVAVVRMKRAGKRFEIACYKNKVVGWRSGVEKDLDEVLQTHSVFVNVSKGQVAKKEDLISAFGTDDQTEICKQILTKGEVQVSDKERHTQLEQMFRDIATIVADKCVNPETKRPYTVILIERAMKDIHYSVKTNKSTKQQALEVIKQLKEKMKIERAHMRLRFILPVNEGKKLKEKLKPLIKVIESEDYGQQLEIVCLIDPGCFREIDELIKKETKGKGSLEVLNLKDVEEGDEKFE”, “soluble”. The entry for “MGSDKIHHHHHHMGFLAREKVHLKKVVIGGSQDWLKHSYKLFKAIMNRIFGYGNKKSHDQLLQESNQSMNQAQQSLSNRISQLDTQIAQLNFQLQNIQKNLQRSNNKQPSLRKQALKILNKRKQLENMKDSLDSQSWSMTQAQLTNDNLQNTMITINALKQTNNAMKAQYGKINIDKLQDMQDEMLDLIEQGDELQEVLAMNNNSGELDDISDAELDAELDALAQEDFTLPTSENSLGNDMPSYLLGANAPPAFIDEEPNLDTEDKNKALESAQ” is “not soluble”; for “MSTEPLVVGAVAYTPNVVPIWEGIRGYFQDSESPDTQMDFVLYSNYARLVDSLIAGHIDIAWNTNLAYVRTVLQTGGRCTPLAQRDTDVDYTTVFVAHAGSDLHGAKDIAGKRLALGSADSAHAAILPLYYLRRAGIAESDLQVIRFDTDIGKHGDTGRSELDAVDAVLAGEADVAAIGSSTWAAMGAAELMGESLTEVWRTDGYCHCMFTALDTLPAERYQPWLDRLLAMSWDDSEHRKILELEGLRRWVPPHLDGYKPLFEAVQEQGIDPRW” it is “not soluble”; for “MGSDKIHHHHHHMENTIYLSSAYLAPVEYYTKLFACEKAYVEQYDNYVKQTYRNRCVIAAADGPLALTIPTEKSGTPKCLMKDVRISDHGNWRHIHWNALVAAYRNSPFFEYYADDFHVFYEKKYAFLWDYNQEICSLVCDLIDIHPHMEGTTEYCMEFVPGEVDFRETIHPKRDWREADADFCPKPYYQVFDAKYGFLPNLSIADLLFNMGPESLIVLRDSVKGINHKE” it is “not soluble”. To “AIAPTGEDNIVVPPAFDGESVSKNKEIYVTFGVDVDAVAGWLGSYGGEDSPFDISRGICAAEVGVPRLLELFRRFDLKTTWFLPGHSVESFPLQMRQVVAAGHEVGAHGYSHENPVRMTPKQEEDVLALSVQILENLTGKKPKGYVAPWWELSAATPELLLRYGFKYDHSQGHHDFQPYYARTAEKWTNIDYSKPARDWMKPLDRGQSVDLVEIPANWYVDDLPPMMFIKSAPNSHGFMNPRDIEDLWRDQFEWVYREYNFAVFPITIHPDVSGRPQVLLMLERFISYIRRFPGVHWTTMEEVAQIFRNKQPFLNA” belongs “soluble”; to “SNPAAEAEFNILLATDSYKVTHYKQYPPNTSKVYSYFECREKKTENSKLRKVKYEETVFYGLQYILNKYLKGKVVTKEKIQEAKDVYKEHFQDDVFNEKGWNYILEKYDGHLPIEIKAVPEGFVIPRGNVLFTVENTDPECYWLTNWIETILVQSWYPITVATNSREQKKILAKYLLETSGNLDGLEYKLHDFGYRGVSSQETAGIGASAHLVNFKGTDTVAGLALIKKYYGTKDPVPGYSVPAAEHSTITAWGKDHEKDAFEHIVTQFSSVPVSVVSDSYDIYNACEKIWGEDLRHLIVSRSTQAPLIIRPDSGNPLDTVLKVLEILGKKFPVTENSKGYKLLPPYLRVIQGDGVDINTLQEVCVLY”, “not soluble”. With “MGSDKIHHHHHHMGNFLYGIDFGTSNSVLSIFDEDKNEIIETLSVPSILYFPDAYDPALPLQYYVGEDAIRYYISDGMKGRFMKSIKRVLPRTNFVETRIHTKSFNAAGLITLILKELKTKADAIIGMDCKKAIIGRPVYFDDDNTVNDAVAQKRLLQAAQQAGLSDIRFQYEPIGAAFAYERTISKKEHVLVADLGGGTTDFTFIELDPHKNNRKDRRSDIIATGGIYIGGDSFDSAFMWDKGTPYFGRGVTYESMPGKMVDVPPSFFSNICSWEKMNFFNGVKVQNDLRQYYNYSKQNDKLKNLITLTENNLGYSIFQSIEKTKVDLSIQSSSSFSYHKADIHIDEPIDLTAYNRIIQRDVTKINNYLESFLSKHAIVPESIDSLFLTGGTSMVQAIQALFKEKFPHIAITSGDNFISVSKGLAYSGYLFD”, the “soluble on expression in E. coli” value is “not soluble”.

For the sequence “DKSYRSTKEIMEYANRFLNDTSIIPMVRSGEKVQSLSISSEDEFVDRVTYAIDDMKKEGIETIGVICENMHDTKYFGELLKSKKYINIIEKENQIYTGGETVMPSYFAKGLEFDGVILVSRENKENKDRVLYVMATRALHKLYDFHIEF”, the “soluble on expression in E. coli” value is given as “not soluble”. To “MGSDKIHHHHHHMKKHAYLIIAHDNWKILEKLLILLDDKRNDIYLHIDRKSNLINFSNNVHNANLFVFHEIDVRWGDISLIQVEFFLFKTAYCKGNYSYYHLISGSDLPLKTQDEIHAFFDAHYPTEFIGFSLEMTCDDRVNRAYIFPKYQRIKNRYGNKLLGSLRSFCAFLQKILNYNHYKLKDKLMIGPEWVSITEQSVSLILSKEKVIMKQYRFASCGDEVYKQTIIGNSFLFNYVYDKNDDYKGCMRYIDWTRGNPYIFRSADFEQLMSSDRMFARKFDEKVDFDIVERIFEVLNGQTSDSKMKYYF” belongs “not soluble”; to “MHLSRCRKCGRVMKGERIDPYRVKLTCSCGFSDFRTMTEKVKTVNPFFQKGGFSPLLESERGKMVLTMQRANREHLEIISLEEISMLVSSDFDLPEVLQHVTAKVATQLKVSVCNIYLREGDEVVLAATHGFDPAFIGKIRIKIGDGITGSVARDGQYISLSRASQDPRYRYFPELQEEKYNSMLSFPIGDKKEVYGVINLNTTSIRSFHEDEIYFVSIIANLILTAIKLRQQVASSRKAAEASA”, “not soluble”.

Regarding “MYPQQTSAAVGARKMRVVGVVEETHDARSILVEPHPEHIDAFDYRPGQFLTVRVPDVGSGTARCYSLSSSPHVDSTMKFTVKRVAGGHGSNWLCDEIALGDELEVLPPAGTFTVRSLDQSVVLVAGGSGITPVIAIAKSILHAGTGTVLLVYANRDERSVIFGEQLRELGERFGSRFTVIHVLESVQGYLTAPAMSNLIRPFTDRAVYICGPEPLMKLVKAVCSAEGIAPSQVMTERFVSLSTDPFRNPVEDKPSTSDTGVEVSAQDEAAAGDCTVHVSLDGTERTVAWPRSKRLLDALLDAGVEAPFSCREGACSACVCSLTEGEVRLVRNEVLEADDLADGYILACQAEVVTDQISIKY”, the “soluble on expression in E. coli” value was “not soluble”. In the case of “MTTNSSSNTVVVYHSGYGHTHRMAEAVAEGAEATLHAIDAEGNLSEDGWAALDAADAIIFGTPTYMGGPSWQFKKFADASSKPWFSAKWQDKVFGGFTNSASLNGDKLNTLQYLVLLAGQHGGLWVSLGIKPSNLKSSVRNDANRMGSYIAPMAQSDADAAPEEMSVGDLETARLYGARVANVARQHKSTERV”, the “soluble on expression in E. coli” value is given as “soluble”. The entry for “MYGILCLSLRRIFQWHTYSMVRIHSLNTMNILTNLEFSFPILYSYETLNTMLRKQRRLYMPRTNYIDIMEKNHMEIPWHDYTNADSNALIANADLIEKASVIGRVGLIMLSCGTGAWRVRTSMNKLSKELGVTCTVDVGLMSIEFNCFDGNDCVSQSLSIANTGVNTSKLYRMEQFVDNFPNEEAHLTGEMIHKRLDEIEQIHTLYSPVKLG” is “not soluble”; for “SSNAKWDQWSSDWQTWNAKWDQWSNDWNAWRSDWQAWKDDWARWNQRWDNWAT” it is “soluble”; for “MGSDKIHHHHHHMQNPQQVSASKTLSPILVQGAMDIEVETLIAALGKVTVNTFGSWTFWEGELSGHPVVVSRTEIGLANAAAATTLAIAHYRPKLIINQGTAGGHDPKLYRGDIVIGETSFNMGSYLTKLTPKGQGIHPTQWQNFDMTMYLRENGEVVKHNHFKADPALVEVALSQAHHYTKGNVVKGIIGTGDEWNRELDRINWLHHTFGTAVEEMETSAAALVAEAYKLPFVSIRILSNTDQHDQDCDPQTAVDCQQFVLNIIQQLINTTK” it is “not soluble”.

As to “GPGSMAVGASSRTAQRTPARERRQIIPPDVSGQFRVTTFLSLDAFALQHFTLDDHSATGKEGRMFRAFGVTTWAPRIWDEGVSGVFLDLRGAYNYWKRADDQAQLVFDSLVAWIGALEAERDPTDRFMNLGRILLQAFRMQLMMASDPGIPVFNILARPCTAVHEADTFARTIQIPLERRGTQISLRCQLCHVTCP”, the “soluble on expression in E. coli” value is “not soluble”. Take “RPLKRDKPAARTLKDNWLRTEREERLWQALRVWRMKQAEAEGIPAYMIFGDKTLRDLVEKMPQDLNGLHDIYGLGEAKIDRFGHGILEVCRNAAGFSRDAVIRPQTEREQQLRQKLEAWRYEQARAENCALHAVLSDESLADMLADTPETETDLEGVYGLGSVRAAKYGRDILAVCRPFSDGIDETAKRKRRLMRALIQWCGETAKHEQSEPYRILSKAALRAIAAKQPEGLAELAAVYGVGEEKAARYGAAVLAVLERNAV”: the “soluble on expression in E. coli” value is recorded as “not soluble”. “MSLSNYISIKGAKVNNLKNIDVNIPRNKLVVITGLSGSGKSSLAFDTLYAEGQRRYVESLSSYARQFLGRMSKPECDFIKGIPPAIAIEQKVNSRNPRSTVGTSTEIYEYLRLLYARVGKTYSPISGQLVKKHSIEDIVNCMLSFPKGTKYTVLTPMMPREGRTLLQQLEMDLKQGFTRIEVNREIVRIEDFLQQTAAEDKKQNIYLLVDRMTADDSKDSISRLTDSAETAMYEGDGNCLLRFYSADGSTQLFSFSTKFETDGIKFEEPNDQMFSFNSPLGACPECEGFGKVIGIDEHLVIPNRALSVYDGAVLCWRGEKMGEWLQEFIHEAPAHDFPIFAPYYELTQEQKDYLWHGPRNKACIDSFFKMLEENQYKIQYRVMLARYRGKTICPVCHGTRLKKEAGYVKVGGKSISQLVDLPIHDLKEFFRTLELDAHDTAIAKRILTEITNRINFLMDVGLGYLTLNRLSNSLSGGESQRINLATSLGSSLVGSLYILDEPSIGLHSRDTDRLIKVLRQLQELGNTVVVVEHDEEIIRAADYIIDIGPQAGRLGGQIVYQGNMNDLQRNSNSYTVRYLLGEEGHHHHHH”: the “soluble on expression in E. coli” value is on record as “not soluble”. The entry for “MGFAKPPWGGKLKGVVRILGGKARGVALKVPASARPSPVRLRKALFDYLRLRYPRRGRFLDLFAGSGAVGLEAASEGWEAVLVEKDPEAVRLLKENVRRTGLGARVVALPVEVFLPEAKAQGERFTVAFMAPPYAMDLAALFGELLASGLVEAGGLYVLQHPKDLYLPLGERRVYGENALTLVEV” is “soluble”; for “GMSEAPHLTFDLDTPGVSTGHLVVPKGADCEALSLPVFSCNRGEGPSLLITGGNHGNELQGPILARRLVKWLPEAQRCGRIIIVPEINPLAVQAWTRNTPIDGKNLNRVFPGRSDGSVSERIADAISRLLLPVVDTVLDLHSFGPTWDCAPSIISHPIADIDQMTKTVSISKAFKLPVTLLWEHNETDGMFDTLVHRQGKTFICTEFGGGVVSAEALTIYEAGVRNGLIALGLVKGKAEYPTFRQQKTGQTLETTSSDQLKSPSPGIFEPRCSVMDEVEQGDVVGVLHPMGSLSAASIDIRAQSKSTVFAIRSAMYVQGNEEVAILARPLAR” it is “soluble”.
